Reference: patent US20180291110A1 (Hoffmann-La Roche, published 2018)
Positions count from the first letter of the chain named.

B1: 2/99 VH5/VL4 (antibody, V domains shown)
VH: QSMEETGGGLIQPGGSLRLSCAASGFSLSSYAMSWVRQAPGKGLEWVGYIWSGGSTDYADSVKGRFTISRDNSKNTLYLQMNSLRAEDTAVYYCARRYGTSYPDYGDANGFDPWGPGTLVTVSS
VL: AYQMTQSPSSLSASVGDRVTITCRASQSISSYLSWYQQKPGKAPKLLIYRASTLASGVPSRFSGSGSGTDFTLTISSLQPEDFATYYCQQSYSSSNVDNTFGGGTKVEIK
B2: 2/99 VH1/VL5 (antibody, V domains shown)
VH: B1 VH with Q1V, S2Q, M3L, E4V, P116Q
VL: B1 VL with A1D, Y2I
B3: 2/99 VH8/VL4 (antibody, V domains shown)
VH: QQLVETGGGLIQPGGSLRLSCAASGFSLSSYAMSWVRQAPGKGLEWIGYIWSGGSTDYASWAKGRFTISKTSTTLYLQMNSLRAEDTAVYYCARRYGTSYPDYGDANGFDPWGQGTLVTVSS
VL: B1 VL
B4: 2/99 VH7/VL4 (antibody, V domains shown)
VH: B1 VH with S2Q, M3L, E4V, V47I, D60S, S61W, V62A, P116Q
VL: B1 VL
B5: 2/99 VH19/VL4 (antibody, V domains shown)
VH: QSMQESGPGLVKPSQTLSLTCTVSGFSLSSYAMSWIRQHPGKGLEWIGYIWSGGSTDYAPSLKSRVTISVDTSKNQFSLKLSSVTAADTAVYYCARRYGTSYPDYGDANGFDPWGQGTLVTVSS
VL: B1 VL
B6: 2/99 VH2/VL5 (antibody, V domains shown)
VH: EVQLVETGGGLIQPGGSLRLSCAASGFSLSSYAMSWVRQAPGKGLEWVGYIWSGGSTDYADSVKGRFTISRDNSKNTLYLQMNSLRAEDTAVYYCARRYGTSYPDYGDANGFDPWGQGTLVTVSS
VL: B1 VL with A1D, Y2I
B7: 2/99 VH5/VL5 (antibody, V domains shown)
VH: B1 VH
VL: B1 VL with A1D, Y2I
B8: 2/99 VH23-DANG/VL4 (antibody, V domains shown)
VH: QSMQESGPGLVKPSQTLSLTCTVSGFSLSSYAMSWIRQHPGKGLEWIGYIWSGGSTDYASWAKSRVTISKTSTTVSLKLSSVTAADTAVYYCARRYGTSYPDYGDANGFDPWGQGTLVTVSS
VL: B1 VL
B9: 2/99 VH12/VL4 (antibody, V domains shown)
VH: QVQLQESGPGLVKPSETLSLTCTVSGFSLSSYAMSWIRQPPGKGLEWIGYIWSGGSTDYNPSLKSRVTISVDTSKNQFSLKLSSVTAADTAVYYCARRYGTSYPDYGDANGFDPWGQGTLVTVSS
VL: B1 VL
B10: 2/99 VH7/VL5 (antibody, V domains shown)
VH: B1 VH with S2Q, M3L, E4V, V47I, D60S, S61W, V62A, P116Q
VL: B1 VL with A1D, Y2I
B11: 2/99 VH12/VL5 (antibody, V domains shown)
VH: B9 VH
VL: B1 VL with A1D, Y2I
B12: 2/99 VH6/VL4 (antibody, V domains shown)
VH: B1 VH with S2Q, M3L, E4V, V47I, P116Q
VL: B1 VL
B13: 2/99 VH6/VL5 (antibody, V domains shown)
VH: B1 VH with S2Q, M3L, E4V, V47I, P116Q
VL: B1 VL with A1D, Y2I
B14: 2/99 VH9/VL5 (antibody, V domains shown)
VH: B1 VH with S2Q, M3L, E4L, T6S, I11V, S27T, L28F, R96K, P116Q
VL: B1 VL with A1D, Y2I
B15: 2/99 VH18/VL4 (antibody, V domains shown)
VH: B9 VH with E16Q, P40H, N60A
VL: B1 VL
B16: 2/99 VH15/VL4 (antibody, V domains shown)
VH: B5 VH with S2Q, M3L, Q15E, I36V, H39P, A59N, F77V
VL: B1 VL
B17: 2/99 VH13/VL4 (antibody, V domains shown)
VH: B9 VH with F78V
VL: B1 VL
B18: 2/99 VH8/VL5 (antibody, V domains shown)
VH: B3 VH
VL: B1 VL with A1D, Y2I
B19: 2/99 VH20/VL4 (antibody, V domains shown)
VH: B5 VH with F77V
VL: B1 VL
B20: 2/99 VH22/VL4 (antibody, V domains shown)
VH: B5 VH with I36V, P60S, S61W, L62A, F77V
VL: B1 VL
B21: 2/99 VH9/VL4 (antibody, V domains shown)
VH: B1 VH with S2Q, M3L, E4L, T6S, I11V, S27T, L28F, R96K, P116Q
VL: B1 VL
B22: 2/99 VH21/VL4 (antibody, V domains shown)
VH: B5 VH with P60S, S61W, L62A, F77V
VL: B1 VL
B23: 2/99 VH16/VL4 (antibody, V domains shown)
VH: B5 VH with S2Q, M3L, Q15E, I36V, H39P, A59N, F77V, Q116P
VL: B1 VL
B24: 2/99 VH11/VL5 (antibody, V domains shown)
VH: B1 VH with S2Q, M3L, E4L, T6S, I11V, P116Q
VL: B1 VL with A1D, Y2I
B25: 2/99 VH11/VL4 (antibody, V domains shown)
VH: B1 VH with S2Q, M3L, E4L, T6S, I11V, P116Q
VL: B1 VL
B26: 2/99 VH17/VL4 (antibody, V domains shown)
VH: B5 VH with S2Q, M3L, Q15E, I36V, H39P, A59N, V70K, F77V, Q116P
VL: B1 VL

Target: T1, human transferrin receptor (recombinant, for surface plasmon resonance) (human, UniProt P02786 89-760)
T1 construct: also called huTfR; human transferrin receptor-biotinylated
T1 sequence (P02786 89-760 limits assumed): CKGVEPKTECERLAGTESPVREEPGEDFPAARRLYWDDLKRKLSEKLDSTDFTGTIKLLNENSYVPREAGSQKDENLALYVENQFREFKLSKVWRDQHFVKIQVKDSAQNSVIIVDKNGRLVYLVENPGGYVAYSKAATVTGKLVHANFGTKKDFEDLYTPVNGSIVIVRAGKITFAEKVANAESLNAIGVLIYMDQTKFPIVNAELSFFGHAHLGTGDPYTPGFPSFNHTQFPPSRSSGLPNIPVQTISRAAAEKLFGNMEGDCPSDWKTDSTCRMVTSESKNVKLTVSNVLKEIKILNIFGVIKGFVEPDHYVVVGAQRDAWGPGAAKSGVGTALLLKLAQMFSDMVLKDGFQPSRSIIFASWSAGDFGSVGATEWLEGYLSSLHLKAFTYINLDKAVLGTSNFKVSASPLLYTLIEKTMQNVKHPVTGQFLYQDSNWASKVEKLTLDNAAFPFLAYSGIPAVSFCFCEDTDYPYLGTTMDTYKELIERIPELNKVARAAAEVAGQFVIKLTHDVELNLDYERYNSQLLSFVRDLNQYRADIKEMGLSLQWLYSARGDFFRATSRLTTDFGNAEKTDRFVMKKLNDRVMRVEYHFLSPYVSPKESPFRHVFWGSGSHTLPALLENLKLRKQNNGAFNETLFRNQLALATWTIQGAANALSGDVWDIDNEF
Assay: SPR 25C

Row | Binder | koff
1 | B1 | 0.00238 s⁻¹
2 | B2 | 0.00271 s⁻¹
3 | B3 | 0.000788 s⁻¹
4 | B4 | 0.00125 s⁻¹
5 | B5 | 0.001 s⁻¹
6 | B6 | 0.00262 s⁻¹
7 | B7 | 0.00253 s⁻¹
8 | B8 | 0.000761 s⁻¹
9 | B9 | 0.00311 s⁻¹
10 | B10 | 0.00135 s⁻¹
11 | B11 | 0.00582 s⁻¹
12 | B12 | 0.00187 s⁻¹
13 | B13 | 0.00166 s⁻¹
14 | B14 | 0.0035 s⁻¹
15 | B15 | 0.00335 s⁻¹
16 | B16 | 0.00134 s⁻¹
17 | B17 | 0.0013 s⁻¹
18 | B18 | 0.00107 s⁻¹
19 | B19 | 0.00436 s⁻¹
20 | B20 | 0.00118 s⁻¹
21 | B21 | 0.0027 s⁻¹
22 | B22 | 0.00146 s⁻¹
23 | B23 | 0.00127 s⁻¹
24 | B24 | 0.00456 s⁻¹
25 | B25 | 0.00388 s⁻¹
26 | B26 | 0.000723 s⁻¹
